Laboratory results published in patent US5834428A, “Glucagon-like peptide-2 and its therapeutic use” (1149336 Ontario Inc., priority 1996, dated 1998).
“And” between values parts separate entries of the source, which are not always exact repeats. Equal values may be shown once. Ends that are not written are not given here.

Key:
Solubility in water = format: physicochemical; conditions: preparation of injection solution
small bowel = assay: Small bowel weight in mice after 10 days of s.c. peptide in 16% gelatin (Example 1); format: in vivo; conditions: for Small bowel weight Day 10: individual mice
Experimental: (§1) In a first experiment designed to investigate the effect of glicentin on small bowel growth, two groups of six mice (8 week, CD1 females from Charles River Laboratories) were treated as follows. Each mouse received 41.5 μg injections every 12 hours for 10 days. The injections were delivered subcutaneously in a final volume of 16% gelatin, with 0.5 cc injected subcutaneously every 12 hours. […] Control mice received 0.5 cc of 16% gelatin solution, but no peptide, every 12 hours. Mice were fed standard rat chow with free access to food and water, until 12 hours prior to sacrifice, at which time food was withheld, and water only was given. The weight of the small bowel was ascertained by excising the entire small bowel, and removing the stomach (proximal end) and appendix/cecum/large bowel (distal end). The remaining small bowel was cleaned with saline to remove feces, and weighed. Results were as follows:
GLP-2 formulations for injection were prepared as follows: Gelatin was dissolved in warm water to a weight ratio of 16%, and the 50 mL solution was autoclaved and cooled to room temperature. A peptide solution was then separately prepared by mixing 5 mg of GLP-2 with water at a volume slightly less than 10 mL, and then adding 1N acetic acid in a volume (10-20 μL) sufficient to dissolve the peptide completely. The pH was then readjusted to about 7.0 by addition of an equal volume of 1N NaOH (10-20 μL), and the solution volume was then adjusted to 10 mL by addition of distilled water. To prepare the formulation for injection, the 10 mL peptide solution and the 50 mL solution of 16% gelatin were combined with mixing, and aliquots for injection were drawn into a 0.5 mL insulin syringe.
(§2) Mice were injected with 0.5 ml of the 16% gelatin solution, without or with peptide (62.5 μg/dose). Four groups of four mice (8 week, CD1 females from Charles River Laboratories) were injected twice daily for 10 days.

[1] = Weight of mice during 10-day peptide treatment (Example 1); format: in vivo; conditions: individual mice
Experimental: as §1, with “weighed.” for “weighed. Results were as follows:”
as §2

[2] = Complete autopsy after long term administration; format: in vivo, mice; conditions: 5 μg once a day s.c. in 10% gelatin for 4, 8 or 12 weeks
Experimental: Effect of Long Term Administration: Rat GLP-2 in a 10% gelatin formulation was administered s.c. in a single dose of 5 μg once a day continuously for 4 weeks (panel A), for 8 weeks (panel B) or for 12 weeks (panel C). FIG. 5 illustrates GLP-2 mediated effects on small bowel weight (BW) and in the crypt plus villus heights (PJ, DJ and DI) in treated groups (T), relative to a control (C) receiving 10% gelatin alone. […] A similar response was noted also for the distal jejunum.

[3] = group of four mice, 62.5 μg/dose twice daily for 10 days in 16% gelatin
[4] = 62.5 μg/dose twice daily for 10 days in 16% gelatin
[5] = 41.5 μg s.c. every 12 hours for 10 days in 16% gelatin

Molecule	solubility in water (Solubility in water)	Small bowel weight % body wt (small bowel; [3])	Small bowel weight Average (small bowel; [3])	Small bowel weight Day 10 (small bowel; [4])	Weight of Mice Day 10 [1, 4]	histological abnormalities at autopsy [2]	intestinotrophic effect (small bowel; 41.5 μg s.c. every 12 hours for 10 days)	Small bowel weight Day 10 (small bowel; [5])	Weight of Mice Day 10 [1, 5]
GLP-1: human GLP-1 (7-36 amide), custom synthesized by tBoc-based solid phase approach [reference compound]	relative greater solubility in water	5.26 ± .2 % body wt	1.33 ± .04 gm	1.4 gm and 1.3 gm and 1.2 gm	24.8 gm and 22.8 gm and 26.5 gm	–	–	–	–
HADGSFSDEMNTILDNLATRDFINWLIQTKITD [rat GLP-2]	–	–	–	–	23.7 gm and 25.7 gm and 27.1 gm and 25.4 gm	no histological abnormalities found	–	–	–
Glicentin: glicentin (rat), proglucagon gene-derived peptide (peptide, UniProt P06883 21-89, looked up, Glicentin, glicentin (rat), proglucagon gene-derived peptide) Glicentin: HAPQDTEENARSFPASQTEPLEDPDQINEDKRHSQGTFTSDYSKYLDSRRAQDFVQWLMNTKRNRNNIA	dissolved easily	–	–	–	–	–	modest	1.6 gm and 1.7 gm and 1.3 gm and 1.9 gm	26.6 gm and 26.2 gm and 24.5 gm and 24.7 gm and 25.8 gm
